Measurements reported in patent publication US6645504B1, “Bystander suppression of type I diabetes by oral administration of glucagon” (AutoImmune Inc., priority 1987, dated 2003).

Assays:
EAE [1] = assay: EAE induced by guinea pig MBP 71-90, feeding of MBP peptides; assay type: in vivo, Lewis rats; conditions: fed; FIG. 14
Experimental: The effects of feeding various peptides to Lewis rats induced for EAE by guinea pig MBP residue nos. 71-90 (the major immunodominant epitope of guinea pig MBP as shown in Example 3 above) were also studied.
EAE was induced by immunizing with 0.25 mg of guinea pig MBP amino acid residue nos 71-90 in Complete Freund's Adjuvant and the effect of feeding various guinea pig MBP peptides on EAE was examined.

OVA line = assay: Transwell culture suppression of OVA T cell line; assay type: cell-based, Lewis rats
Excerpt: (§1) Transwell Cultures. A dual chamber transwell culture system (Costar, Cambridge, Mass.), which is 24.5 mm in diameter and consists of two compartments separated by a semi-permeable polycarbonate membrane, with a pore size of 0.4 μm, was used. The two chambers are 1 mm apart, allowing cells to be coin-cubated in close proximity without direct cell-to-cell contact. To measure in vitro suppression of proliferative responses in transwell cultures, 5×10^4 MBP- or OVA-specific line cells, raised and maintained as previously described (Ben-Nun, A. et al., Eur. J. Immunol. 11:195, 1981), were cultured with 10^6 irradiated (2,500 rad) thymocytes, in 600 μl of proliferation media in the lower well. Spleen cells from orally tolerized rats or controls (fed BSA) were added to the upper well (5×10^5 cells in 200 μl). Spleen cells were removed 7-14 days after the last feeding, and a single cell suspension was prepared by pressing the spleens through a stainless steel mesh. MBP and OVA (50 μg/ml) were added in a volume of 20 μl. […] In some experiments, modulator cells were added in the lower well together with responder cells, and in these instances modulator cells were irradiated (1,250 rad) immediately before being placed in culture. Proliferation media consisted of RPMI 1640 (Gibco Laboratories, Grand Island, N.Y.) supplemented with […] 2-mercaptoethanol, 1% sodium pyruvate, 1% penicillin and streptomycin, 1% glutamine, 1% HEPES buffer, 1% nonessential amino acids, and 1% autologous serum. Each transwell was performed in quadruplicate. The transwells were incubated at 37° C. in a humidified 6% CO2 and 94% air atmosphere for 72 hours. After 54 hours of culture, each lower well was pulsed with 4 μCi of [^3H]thymidine and at 72 hours split and reseeded to three wells in a round-bottomed 96-well plate (Costar) for harvesting onto fiberglass filters and counting using standard liquid scintillation techniques. Percent suppression =100×(1−Δ A cpm responders cultured with modulators/Δ cpm of responders).

DTH responses = DTH responses in animals fed MBP or MBP peptides; assay type: in vivo, Lewis rats; conditions: FIG. 15
Excerpt: Guinea pig MBP peptide 131-150 was ineffective in this case. Peptides were also fed with STI which prevents their breakdown by gastric juices and enhances their biological effect. DTH responses to whole MBP were suppressed by feeding MBP or any one of the MBP-peptides 21-40, or 71-90.

TGF-β = assay: Measurement of TGF-β activity in serum-free culture supernatants of spleen cells; assay type: cell-based, Lewis rats
Experimental: Measurement Of TGF-β Activity In Serum-Free Culture Supernatants. Serum free culture supernatants were collected as previously described (Kehri, et al. J. Exp. Med. 163: 1037-1050, 1986; Wahl, et al. J. […] Thereafter cells were washed three times and resuspended in serum-free medium for the remainder of the 72 hour culture, collected, then frozen until assayed. Determination of TGF-β content and isoform type in supernatants was performed using a mink lung epithelial cell line (American Type Culture Collection, Bethesda, Md. #CCL-64) according to Danielpour et al. (supra), and confirmed by a Sandwich Enzyme Linked Immunosorbent Assay (SELISA) assay as previously described (Danielpour et al. Growth Factors 2: 61-71,1989). The percent active TGF-β was determined by assay without prior acid activation of the samples.

[2] = tested on: Cells, cytokines and activation markers in rat brain; assay: Immunohistology of cells, cytokines and activation markers in sections of rat brain; assay type: in vivo, Lewis rats; set-up: key to IL-4 / TGF-β / PGE: −: absence of labelling; +/−: <10 cells/section or trace labelling; +: few small foci; 2+: multiple foci; 3+: multiple large perivascular collections and diffuse submeningeal staining; conditions: brain sections at day 14 (peak of disease), n = 3/group
Experimental: The effect of oral administration of MBP in rats induced for EAE was analyzed in terms of the cells and factors present in the brains of fed and control rats. Lewis rats were fed MBP five times then immunized with MBP/CFA and their brains were examined immunohistologically at day 14 (peak of disease) and compared to brains from immunized control-fed animals harvested at the same time, and to brains of naive animals. Cryostat sections of cortex and cerebellum were fixed in paraformaldehyde-lysine-periodate for determination of leukocytes and activation antigens, or in acetone for the labelling of cytokines, and stained by a peroxidase-antiperoxidase method (Hancock, W. W., et al., J. Immunol. 138:164, 1987). Results of cytokine and endothelial labelling in 20 consecutive fields were judged as (−) absence of labelling, (+/−) <10 cells/section or trace labelling, (+) few small foci, (2+) multiple foci, and (3+) multiple large perivascular collections and diffuse submeningeal staining.

MBP line = assay: Transwell culture suppression of MBP T cell line; assay type: cell-based, Lewis rats
Excerpt: as §1

EAE [3] = assay: EAE after MBP/CFA immunization with oral tolerization and in vivo anti-TGF-β antiserum; set-up: species or system Lewis rats; conditions: orally tolerized animals treated 5 times with 50 μl control serum; score 0-5
[4] = MBP-fed modulators + MBP in upper well
[5] = MBP-fed modulators in upper well without MBP
[6] = spleen cells of MBP-fed animals stimulated with concanavalin-A
[7] = irradiated modulators in lower well with MBP line + MBP 50 μg/ml
[8] = modulators in upper well, MBP line + MBP in lower well

B1: MBP: Guinea pig myelin basic protein purified from brain tissue (protein, UniProt P25188 1-167, looked up)
Myelin basic protein: ASQKRPSQRHGSKYLATASTMDHARHGFLPRHRDTGILDSIGRFFGSDRAAPKRGSGKDSHHAARTTHYGSLPQKSQRSQDENPVVHFFKNIVTPRTPPPSQGKGRGLSLSRFSWGAEGQKPGFGYGGRADYKSKGFKGAHDAQGTLSKIFKLGGRDSRSGSPMARR
EAE [1]
  down-regulation of EAE induced by guinea pig MBP 71-90: equally effective in down-regulating EAE
OVA line; [4]
  Percent Suppression: 51%
  Δ cpm: 30,974 ± 3,450 cpm
OVA line; [5]
  Percent Suppression: −5%
  Δ cpm: 65,868 ± 3,989 cpm
DTH responses
  DTH responses to guinea pig MBP peptide 71-90: suppressed
  DTH responses to whole MBP: suppressed
TGF-β; [6]
  active TGF-β: No active TGF-β was observed
  latent TGF-β: 2.1 ± 0.45 ng/mL
TGF-β; spleen cells of fed animals stimulated in vitro with the fed antigen
  TGF-β in the active form: 68±9%
TGF-β; spleen cells of fed animals stimulated in vitro with the fed antigen, serum-free
  amount of TGF-β: 6.8 ± 1.7 ng/mL
[2]
  IL-2R(p55), PCNA: +/− (<10 cells/section or trace labelling)
  IL-4: −
  PGE: −
  TGF-β: 2+
MBP line; [7]
  Percent Suppression: 51%
  Δ cpm: 18,412 ± 1,867 cpm
MBP line; [8]
  Percent Suppression: 59%
  Δ cpm: 15,620 ± 2,294 cpm
EAE [3]
  maximal disease severity: 1.0±0.2
